# Entries after “also recorded” stand apart in the source; their conditions may differ. Where a SMILES comes first, the peptide text is derived from it. [ ]: non-standard residue; d: D form. The star is where a group is joined. Sta = CC(C)C[C@H](N)[C@@H](O)CC(=O)O; Isovaleryl = CC(C)CC(=O)*
# T1: AEP (Homo sapiens, UniProt Q99538)
# T1 sequence (Q99538 18-323): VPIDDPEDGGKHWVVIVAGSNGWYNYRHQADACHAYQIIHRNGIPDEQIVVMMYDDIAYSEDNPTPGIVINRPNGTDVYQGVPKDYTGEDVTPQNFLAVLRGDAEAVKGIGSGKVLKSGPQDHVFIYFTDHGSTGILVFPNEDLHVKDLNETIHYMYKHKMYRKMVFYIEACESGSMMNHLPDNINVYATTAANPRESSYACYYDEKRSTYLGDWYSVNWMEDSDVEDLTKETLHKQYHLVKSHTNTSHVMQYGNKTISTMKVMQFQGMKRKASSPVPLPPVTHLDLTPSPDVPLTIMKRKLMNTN
# B1: T102C: cystatin C mutant with threonine 102 replaced by cysteine, C-terminal 6His-tag (protein)
# chain: SSPGKPPRLVGGPMDASVEEEGVRRALDFAVGEYNKASNDMYHSRALQVVRARKQIVAGVNYFLDVELGRTTCTKCQPNLDNCPFHDQPHLKRKAFCSFQIYAVPWQGTMTLSKSTCQDAHHHHHH
# B2: cystatin C: naturally occurring 14 kDa protein that inhibits PLCPs and AEP (protein, listed as Homo sapiens)
# chain: MAGPLRAPLLLLAILAVALAVSPAAGSSPGKPPRLVGGPMDASVEEEGVRRALDFAVGEYNKASNDMYHSRALQVVRARKQIVAGVNYFLDVELGRTTCTKTQPNLDNCPFHDQPHLKRKAFCSFQIYAVPWQGTMTLSKSTCQDA
# modifications: Cystatin C
# What was measured:
# [1] = test system: endo-lysosomal proteases of purified lysosomes from mouse macrophages; assay: In vitro digest of apo-HRP with purified macrophage lysosomes; type: biochemical; conditions: SDS-PAGE
# Description: Lysosomes isolated from bone-marrow derived macrophages using a Percoll density-gradient fractionation (400 ng/μL, 3.6 μL) were resuspended in assay buffer (50 mM Citrate, pH 4.5, 0.5% Triton X-100; 59 μL) Inhibitor (70 μM; 12 μL in PBS+5% DMSO) was added and the mixture incubated for 15 minutes. Protein substrate (1 mg/mL in PBS, 9 μL) was added to the mixture and the reaction was incubated at 37° C. At the indicated timepoints 20 μL of the reaction mixture was removed and boiled with LDS-sample buffer and analysed by SDS-PAGE.
# [2] = cited from earlier work
# Cathepsin D and E = conditions: read-out: Ki for inhibition of Cathepsin D and E; cited from earlier work
# [3] = Solubility in aqueous media; type: physicochemical; conditions: applicant's own observation
# mouse Cathepsin L = target: T2, mouse Cathepsin L (Mus musculus, UniProt P06797); assay: Inhibition studies of recombinant Cathepsin L; type: biochemical; conditions: compared among mutants R77C, L117C, T102C; 5 ng Cathepsin L/well
# T2 construct: purchased R&D systems
# Description: All protease inhibition studies were carried out as described previously^7-9 on a FLUOstar Optima Fluorimeter (BMG) with 360 nm excitation and 460 nm emission wavelength filters as described previously.^1-2,9-10 Recombinant Cathepsin D and Cathepsin S were purchased from R&D Systems.
# The mixture was gently shaken at room temperature for 5 minutes prior to the addition of Z-Leu-Arg-AMC (40 μM in assay buffer, made from a 1 mM DMSO Stock solution). 7-amino-4-methylcoumarin release was measured by fluorescence spectroscopy over time. Initial rates were plotted against inhibitor concentration^11.
# COS-7 cells, EGFr = assay: Effect on EGF receptor downregulation and EGF signalling (Western blot); type: cell-based
# Description: COS7 cells growing in 12-well tissue culture plates were preincubated for 1 hour with or without cystatin C (0.35 mg/ml) or CPI (0.32 mg/ml) and then stimulated with 100 ng/ml EGF for the times shown. The cells were scraped from the well in 50 μl lysis buffer containing 50 mM Tris, 150 mM NaCl, 1 mM EGTA, 1 mM EDTA, 1% NP40 plus protease inhibitors (Roche, Miniprotease tablet). […] The blot was then stripped and reprobed for phosphor-Erk (p42/44 MAP kinase; Cell signalling) and as as loading control, Rsk2 (Santa Cruz) with appropriate secondary antibodies. The signals were quantitated using ImageJ analysis software.
# AEP = target: T1, AEP; conditions: via a distinct binding site; read-out: Ki for inhibition of AEP; cited from earlier work
# T2 sequence (P06797 114-333 limits assumed): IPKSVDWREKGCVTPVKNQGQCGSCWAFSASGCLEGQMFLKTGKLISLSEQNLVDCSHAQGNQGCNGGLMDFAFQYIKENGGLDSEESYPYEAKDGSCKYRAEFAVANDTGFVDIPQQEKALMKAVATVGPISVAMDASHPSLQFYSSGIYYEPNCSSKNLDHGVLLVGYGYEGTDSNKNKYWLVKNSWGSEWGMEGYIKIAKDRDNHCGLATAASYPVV
molecule,measurement,setting,value
CC(C)CC(=O)N[C@H](C(=O)N[C@H](C(=O)N[C@@H](CC(C)C)[C@@H](O)CC(=O)N[C@@H](C)C(=O)N[C@@H](CC(C)C)[C@@H](O)CC(=O)O)C(C)C)C(C)C [pepstatin A] (Isovaleryl-VV[Sta]A[Sta]-OH),stabilization of apo-HRP against lysosomal degradation,"[1]; FIG. 9, listed as pepstatin",little or no stabilization
same,"solubility in aqueous media, in words",[2],virtual insolubility in aqueous media
same,Ki,Cathepsin D and E,0.1 nM
same,"water solubility, in words",[3],insolubility; also recorded: very insoluble
B1,inhibitory properties of cystatin C mutants,mouse Cathepsin L,most favourable inhibitory properties
B2,EGFr level / downregulation after EGF challenge,"COS-7 cells, EGFr; 1 hour preincubation, 100 ng/ml EGF up to 90 min, Western blot",suppressed EGFr downregulation but not to the same extent as CPI
same,activation of MAP kinases Erk1/2 (check for inhibitor toxicity),"COS-7 cells, EGFr; COS-7 cells stimulated with EGF",normally
same,stabilization of apo-HRP against lysosomal degradation,"[1]; FIG. 9, listed as Cystatin C",appears to protect a fragment only
same,stabilization of apo-HRP against lysosomal degradation,"[1]; FIG. 9, listed as cystatin",little or no stabilization
same,Ki,AEP,0.2 nM
